Data from article doi:10.1101/2023.08.08.552426.

Assays:
[1] = biological target: smORF5 (A0901_04910) (Apilactobacillus kunkeei strain A0901); assay: NMR relaxation
[2] = biological target: smORF7 (A0901_04830) (Apilactobacillus kunkeei strain A0901); assay: NMR relaxation

| Substance | stoichiometry N [1] | stoichiometry N [2] |
| --- | --- | --- |
| smORF5 (A0901_04910) (natural protein) | 2 |  |
| smORF7 (A0901_04830) (natural protein) |  | 2 |
